Test results as given in a protein production outcome set (Wang et al. 2014).

Assay: label from the status in PepcDB records

In the case of “MKRILVSLYEKEKYLDILRELHEKGWEIWASSGTAKFLKSNGIEANDVSTITGFENLLGGLVKTLHPEIFAGILGPEPRWDVVFVDLYPPPDIDIGGVALLRAAAKNWKKVKPAFDMETLKLAIEIDDEETRKYLAGMTFAFTSVYDSIRANQFVEGISLAFKREDLQLRYGENPHEKAFVYGKPAFEILHEGKTISFNNILDAENAWFMAKNLPRMGAVVVKHQSPCGAAIGEDKVEIVKKAIEADDESSFGGILAVNFEMDEEVAKSLKKYLEVIVAPSFTQEAIEVLSKKKVRLLKPGDYASWAGKMAFGSLVLSERKYPEGNFELVVGEPLSEKELEDLEFAYRVVEGAKSNAVLIAKDGVTVGIGSGQPSRKRAAWIATVMAGEKAKGAVAASDAFFPFPDSLEILAQAGVKAVVAPLGSIRDEEVIEKARELGITFYKAPSRVFRH”, the protein production is reported as “not failed”.

With “MKRKAVNFHPQVDMSIGDKYLLKEFIDEGSFGYVWKAVNLENRQTVALKIPKDQERGDNTLSEGKEFIGSHHPNVISIYWMGRVDGVFLIEMEYFNGHKLSDELCETGFKSPRTFEEIYNLFFQILDGVEYIHSKHICHGDIKPQNILIDGKIAKITDFGTSKLIEDLFIKTIDGGGTWAYMAPEVAGSNRRYLNSDIYSLGVLLYKFLTGRTPHETANQLINNIPYPKPREINNNIPESVERIIMKLLKRNPDERYQNISEIKRDLEEALRSEDRNIISYNERAEVKYEDTDWIERVIRYYKNNEFDKAELLLKTEYENGNKSADVLYHIAYTYFQQGRYFESMDVIKDIDITQVEDIRQEALEDNLLYLKGKLFFELKKYEEAVKVYEKLVSRNPDDLNYRYKLACAYGLNDEQEKSIEILEDINKKTPGMLYIVKKLGHAYDQIKDFKKARAYFNYAIRLDPSDTIIRNRLEEYSKYFNYLGY” the protein production was “failed”.

For “MKRKISMNKYVVSTILVMISTFFSRIMGFVKIKIFSYYFGANLDADIFNYVFNIPNNLRKILSEGAMTSAFLPEFTHEKNKSHEKAVSFFRTVITFNIISIGLIVLVMIIFAKPIMYFISYYRGENLIFASSVFGYLVLYILLISLSSIFVSVLNSYKIFFIPSFSPIMLSFGIILSIFLFYGRFGIYSAVIGVIFGGFLQFLIPFANCLMIGFAWKPTFYFREKVFLNFLTRWLRMIFGFSISIITQQISFALASTLEIGSVSILSNAVVYYQLPVGIFYISIATVIFPKMAEHAVLGNNIKLNALLVDGIKILLLIFIPVSFLMFIWSDYILNLFLMGGKFSIYDTQKTASVLKCFLLGLLFYSMFGFFQKYYFSIRDAKTPFYLSVLFSILDIAISVFGINYYGLNALALAQSISFMICVIVFYFIILKRGVKIDLIEILFVLLKSIITLFPLYAIYFFFEKFQWDVGFSFKNLYFLMAAGIVSIFVLFICYSVLGINKLFRYIRRDAL”, the protein production was “failed”.

With “MKRKLTTKFIESQKPNPSKRLDFRDELMPGLVLRISTSGTKTFCLHKRISGKMRRLTIGRFGVVSLAEARERVRKVLYEIETGRFEDRTGVEVETKPTLGDVIPDYIEKHAKVHNRDWKRKEALLAKFAALHVKRIDEIKRADVVKACDLIHKSAPVSANRALAHLKHLMGWCVERGMIDASPIAGMKPLSKERSRERVLTDDELGALWTACDAEGYPFGDCMKLLILSGQRRAEVAEMRWTELDLEKRLWTLPSQRAKNGRQHTVPITDAMIDVLRRVPRFLGSDYVFTTTGKSPVSGFGRLKDRLDKALPEGTEPWIIHDLRRTMSTNMAMLGVPQPVTEALLNHKTGVVSGVAAIYNVYSYTDEKCEALEQWNRHLTKMTQGHSDRLAGKMSAQFSA” the protein production was “failed”.

For “MKRKMLKRLLTSAFACMFIANGLITTTVRAVGPKTGEENQVLVPNLNPTPENLEVVGDGFKITSSINLVGEEEADENAVNALREFLTANNIEINSENDPNSTTLIIGEVDDDIPELDEALNGTTAENLKEEGYALVSNDGKIAIEGKDGDGTFYGVQTFKQLVKESNIPEVNITDYPTVSARGIVEGFYGTPWTHKDRLDQIKFYGENKLNTYIYAPKDDPYHREKWREPYPENEMQRMQELIDASAENKVDFVFGISPGIDIRFDGEAGEEDFNHLIAKAESLYDMGVRSFAIYWDDIQDKSAAKHAQVLNRFNEEFVKAKGDVKPLITVPTEYDTGAMVSNGQPRTYTRIFAETVDPSIEVMWTGPGVVTNEIPLSDAQLISGIYNRNMAVWWNYPVTDYFKGKLALGPMHGLDKGLNQYVDFFTVNPMEHAELSKISIHTAADYSWNMDNYDYDKAWNRAIDMLYGDLAEDMKVFANHSTRMDNKTWAKSGREDAPELRAKMDELWNKLSSKEDASALIEELYGEFARMEEACNNLKANLPEVALEECSRQLDELITLAQGDKASLDMIVAQLNEDTEAYESAKEIAQNKLNTALSSFAVISEKVAQSFIQEALSFDLTLINPRTVKITASSEETSGENAPASFASDGDMNTFWHSKWSSPAHEGPHHLTLELDNVYEINKVKYAPRQDSKNGRITGYKVSVSLDGENFTEVKTGTLEDNAAIKFIEFDSVDAKYVRLDVTDSVSDQANGRGKFATAAEVNVHGKLKEAAEVTGSVSLEALEEVQVGENIEVGVGIDELVNAEAFAYDFTLNYDENAFEYVEAISDDGVFVNAKKIEDGKVRVLVSSLTGEPLPAKEVLAKVVLRAEAKTEGSNLSVTNSSVGDGEGLVHEIAGTEKTVNIIEGTSPEIVVNPVRDFKASEINKKNVTVTWTEPETTEGLEGYILYKDGKKVAEIGKDETSYTFKKLNRHTIYNFKIAAKYSNGEVSSKESLTLRTAR”, the protein production was “failed”.

In the case of “MKRLIAATLVAAMGVSLLTGCGVSNKSHDNTQVGTTENSSDKAKNKEVKMHVWCSKDDVDITTQMIESFKEANKGTDFNIIIEESEDSDARDNILSNVHNGADVFPIADDQITSMVAGGALYEIEDVDAVKKANDESAVEAATIDGKLYGYPLTADNGYFMYYNKNYFSDSDVATLDGMLDIAGANGKYLTMDWSSGWYLYSFFGNTGLDFGVNDDGVTNHCNWNAIITDIKGVDIAQAMLDIAAKPGFKNCVQDDFIAGVQDGSIIAGVSGCWNAAKIKELWGDDYGAVKLPTYTCAGQQIQMSSFKGYKYMAVNAYTKYPEWANKLAQWFTNEDNQKLRFEMKNVGPANKAAAADDAVKKVPAIMAVMDQAQYGKLQRVGNSYWDAATEFGEKMAAGNPDNTDLQEIMDNLVAGITQSVAE”, the protein production is reported as “failed”.

In the case of “MKRLIVVYLLFISLNVLNAWAQKSPADYVNPIIGATTADEMAGSDHGLGKTFPGVCTPFGLVQLSPDTKTGGDNGPGYSWHHSTIEGFSFTHMSGIGWYGDLGNFLVMPTTGELHTFKGTEENPESGYRSRYSHDREVAKVDGYSVMLDDYGIQVELAAASRSGMMRFTYPQSEVSRIQIDLARRIGGTSTEQYVEVVDDYTIKGWMKCTPDGGGWGDGAGQGNYTAYFYCCFDRPLKNFGLWSADIPEGVERKNASNDDPAYHEYIKNAHVFPRKKIAQGKHLGFYTEFSTREGEQALLKCGISFVSIEGARKNLQSDISDWNFDGVRQRARRQWNEALSGVQVEGEEKDKTIFYTSLYHTMIDPRCFSDVDGAYPGADGKVHYADNFIYRTIFSGWDVFRSQFPLQTITNPRLVDDEINSLIQLAELSGKKYFPRWEFLNAYSGCMVGNPAVSVVADAYNKGIRNYDTRKALEYSLNTVRTFGNNEQGYTPDDLSKTLEYAYTDWCVSTMLRDMGREQEAVAFERKAQSYHQVWCDSVKWFRARSADGSWMPWKGRNVHWQGCIESNNYQQGWFVPHDLEGLISLMGKEYFERELVAFFEGADERFMWGDYYNHPNEPDHQVPFMLNYTSRPWLTQYWTRRICRNAYGDTVNGLCGNEDVGQMSAWYILAAMGFHPICPGNNRYELTSPVFRKVILSLDNRYYKGRTFTIIAHHNSPENVYIQSVSLNGKPLNRLWITHEEITKGGVLEFVLGKDPKH”, the protein production is reported as “failed”.

In the case of “MKRLLLCLIVIAQTILSLTAQTTEELSRMQTLIDHMAYTEALAWADSCSLQDEQALHLRAKALSELGRHPEAFAVYQRIVRMDPHDAVAYRLGAALQVDMQDYATAAEMLHQGYERTSDIPTGYDLAKLLVHIGQDSTALVITDRILRQDSLPPVIRLRAKALNKRQQPSQAIALLEEQMLRDSTDFLTLIDLATLYGQVEETRRQEQVTARYLQTDSLNVAVLLAHAESMMMLQEADSALHDYERIIGRGHFPTSFKDLFYCGLAYYKTGRWAVAEECFRRADESAFQQNYLTKYYLGMCAYRQKLWEEAEKRLQKLLDLIEPKTDRLTDVHTMLGRCANEQGRTETAISHLRYAIEYDSGNSEACLLLAQCFEKTGNRTGAIHMYRRVLDKERASTAKNDIEGFRRLAEARSRLSLLKADDSEDEETP”, the protein production is reported as “failed”.

In the case of “MKRLMTSLAALSLTAGLAHAQAADVPDNLEKLSNFQSTGATDFTFVEQGGDFADGIKRNLERIKLPQGFRIGLYAVVPDARHMAVGPQGIVTFVGTRKDKVWAVTDRNKDRVADEVKDFAPSLRFTIPNGPCFSKDGFLYIAEQNRVLLFPAAEFFYESGDVAAFNLVKQGELIPVEEESFNHTARVCDIGPDGMIYITLGQPFNVPAPEKRELYDKWGIGGIVRMKTDGTGREVFARGIRNSVGMDIDPETGNVWFTDNQVDGMGDDIPPGEINRATEPGQNFGFPWYGGGSIRTNEYKDEEPPADAVMPVVEMDAHAADLGMMFYTGSMFPEEYRGAIFSAQHGSWNRTTPVGARVMVTTLAEDGTATTKPFAEGWIDENGEYLGRPVDVAQLRDGSILVSDDLVGAIYRIWYQPE”, the protein production is reported as “failed”.

With “MKRNIFSIGFISVVLFIVLGACVGLAASEALQGSEQEINSAFSNQITPVISGDYIVWQDERDGNWDIYMYDMSAGRTETSLFNGPKDEIEPAISGSRVVLADNRRGNYDIYMYDISTKKEVQVTSDKSEQKEPAISEDIIVWTDRRNQNTDIYMYDLTTKEETRITDDKADQSQPAVWGNIIVWKDTRNGNEDIYMYDISAGKESPVVMDSAAQTNPVIEGDYIVWEDRRAGNLDIYMYEISTGKEKPVCTDPSPQKTPAISDGRIVWADGRIKGTNIFIYDIATGQEKTVSTASEYESNPSIDGNRIVWQDKRKGAMDIFMFTEDASETESTAGEKTEAETGSKAPLGIYPVSAGVIAAYLMINSGKKGKRKT” the protein production was “failed”.

With “MKRPELIIFDWDGTLFDSVGQIVASLRFAADQFNQPLTDEAAQSIIGLGLPEVMQALFPQVPHLHQEILVHYGEHYVENSKHDAWFEGVAELLHDLKAQGIKLAVATGKSRRGLDRVLNKTQSHELFDITRAASETMSKPHPRMLEEILQVTQVEAQHAIMVGDSSYDLEMAKNIDMPRVGVSYGVHEVDVLQRYEPLTIVDSIAELHHYLTQLLQEKIHA” the protein production was “failed”.

For “MKRRAGLGGSMRSVVGFLSQRGLHGDPLLTQDFQRRRLRGCRNLYKKDLLGHFGCVNAIEFSNNGGQWLVSGGDDRRVLLWHMEQAIHSRVKPIQLKGEHHSNIFCLAFNSGNTKVFSGGNDEQVILHDVESSETLDVFAHEDAVYGLSVSPVNDNIFASSSDDGRVLIWDIRESPHGEPFCLANYPSAFHSVMFNPVEPRLLATANSKEGVGLWDIRKPQSSLLRYGGNLSLQSAMSVRFNSNGTQLLALRRRLPPVLYDIHSRLPVFQFDNQGYFNSCTMKSCCFAGDRDQHHNWKWRAQAVSFQPFLSLTRNGDADVDLKLAV”, the protein production was “failed”.

For “MKRREVLQAGMALGGLAGLGRALAQGGFTLTLVHTNDTHAHLEPVELTLSGEKTPVGGVARRVALFDRVWARAKNPLFLDAGDVFQGTLYFNQYRGLADRYFMHRLRYRAMALGNHEFDLGPGPLADFLKGARFKVVSANVDASREPRLKGLFAPYAVVVVGGERVGIIGLTTPDTREISNPGPTVAFLDPYESAQKAVYELLAKGVNKIVVLSHLGYGEDLKLARRLVGVQVIVGGHSHTLLGSFPHKELSPAGPYPTVVKNPEGKDVLVVQAWEWGKVVGLLEVTFDAKGELLAYKGEALLMTPEAAPEDFFAKEALLAYAQPVMALMQQVIAEAKVDLVGERAVVRRRESNLGNLITDGMLWKTRNAGTQIALQNGGGIRASIPKGPITVGKVYEVLPFGNTLVVMDLKGKEILAALENGVSQWENTAGRFLQVSGLRYAFDLSRPAGSRVVRVEVKTEKGYVPLDLEATYRVVVNNFIANGGDGFTVLKEAQGYRVDTGFSDAESFMDYLKELKVVEAGLEGRIEVLNEPKGERPAYFAYRVPGLVGV”, the protein production was “not failed”.
